From the DeepSol protein solubility set come the findings set out here.

The nature of the data set: soluble on expression in E. coli; label from the status in PepcDB or PDB records.
For the sequence “MGSDKIHHHHHHMAKHPLVMALAKVIIAAAWADGELSLDEVNDLKRLLAELGQTGGQFALTADDWAELEIYLYSPVEAAERARLIADLRDLIITPGQQQLVLQAIERLLIADRVLTPVEREVAQEIQRALTQDSQSLLFQIGRAFRLALGIRAGGPNREDLLPEFMRNRIYYALQIRLGQHIDEFGLDRDELHVLTLAGGLLARVAYVDKQVTPAEHDRIVAILKEWWQLDDTQAALVAEVALDESAASLDFFRLTKAFADATTVERRQRFLDALFAVALADGELSGAESAEISRITAAINLPHDSFVAARLRLPRQPGKRL”, the “soluble on expression in E. coli” value is listed as “not soluble”.
Regarding “MKFLLLLFPVLLLAKSPEKRSKVGIDEDNFLQLLEVEIARTLRSELSSDDDLQNLEGSSDSPEDDYLKKYDLILSSSTTSPKPITTTETTTRSTTTTTTTTTTTAAPSTTTSTVKITPKPLRSTPQCVPEKDCYKDSECPSGKCFGSELGLCDCNACITNKKCSSDLDCGGLRNGCDSNGNCDCVNAFHSHGYKLFVKVLLTFCHQTKCTKTSDNCYGLPCRVGKCKCFVGSLSVVTMCSRVLFVLLSTFTVLAGASVTCDLTQKPSTWAQVHAKNIFFNAYEPDNYFSLNGFCVNNDFMSHTLTYSSHVKLADSSVKVKTDVALNTNFDASLSNCGKDVSQVQWCQSHCQDKTLENVIVSSAVINGSLPLALAQQVFSTIGSPNDTSIASMQVDLNSQGVRIDYDYYDDFNFCSVYVKVKRPSMFPYALFITVQKIVGV”, the “soluble on expression in E. coli” value was “not soluble”.
Consider “MYALFLLASLLGAALAGPVLGLKECTRGSAVWCQNVKTASDCGAVKHCLQTVWNKPTVKSLPCDICKDVVTAAGDMLKDNATEEEILVYLEKTCDWLPKPNMSASCKEIVDSYLPVILDIIKGEMSRPGEVCSALNLCESLQKHLAELNHQKQLESNKIPELDMTEVVAPFMANIPLLLYPQDGPRSKPQPKDNGDVCQDCIQMVTDIQTAVRTNSTFVQALVEHVKEECDRLGPGMADICKNYISQYSEIAIQMMMHMQPKEICALVGFCDEVKEMPMQTLVPAKVASKNVIPALELVEPIKKHEVPAKSDVYCEVCEFLVKEVTKLIDNNKTEKEILDAFDKMCSKLPKSLSEECQEVVDTYGSSILSILLEEVSPELVCSMLHLCSGTRLPALTVHVTQPKDGGFCEVCKKLVGYLDRNLEKNSTKQEILAALEKGCSFLPDPYQKQCDQFVAEYEPVLIEILVEVMDPSFVCLKIGACPSAHKPLLGTEKCIWGPSYWCQNTETAAQCNAVEHCKRHVWN”, for which the “soluble on expression in E. coli” value was “soluble”.
For “MGSDKIHHHHHHMIKAIALLRRKQGLSREQFIAYYETRHAPLIRSLLPGIEDYRRNYVDRTGAFESGIAAIDFDSVTEMRFASRASYDAFLAQAADPEIARLIADDEENVFDRSATRMFVVDETPAALSPDTPSPVLIDELLAERAIRDGLARFARVLDAKAWDALGDVFAADLTFDYGLGEQVGLEALTVNMRRFLDVCGPSQHLIGSIMITVDPGLQSATSRAYVRARHQRAGNSGGPVFDSNGEYVDRWECRAEGWRIVRRDALWQTQSGEAAIIWDGSPAAG” the value was “not soluble”.
The result for “MNNSKTNQQMNTSMGYPLTVYDECNKFQLIVPTLDANIMLWCIGQLSLLNDSNGCKHLFWQPNDKSNVRILLNNYDYGHLFKYLQCQRKCSVYIGEGTLKKYNLTISTSFDNFLDLTPSEEKESLCREDAHEDPVSPKAGSEEEISPNSTSNVVVSRECLDNFMKQLLKLEESLNKLELEQKVTNKEPNHRISGTIDIPEDRSELVNFFTELKTVKQLEDVFQRYHDYERLSQECDSKTEIASDHSKKETKIEVEPPNERSLQITMNQRDNSLYFQLFNNTNSVLAGNCKLKFTDAGDKPTTQIIDMGPHEIGIKEYKEYRYFPYALDLEAGSTIEIENQYGEVIFLGKYGSSPMINLRPPSRLSAESLQASQEPFYSFQIDTLPELDDSSIISTSISLSYDGDDNEKALTWEEL” reads “soluble”; that for “MSLSARAEDINNIENKTIGHGRTSYNKSVSGRVENIRLSTESVDYVVLGSGDTFTFNGIVGERTKERGYQVASVIMDGDFTDGLGGGICQTSTTLYNAVLDAGLTVLERHPHSLPVGYVEEGMDAMVSWGSADLRFRNDFDYPVVIRGGVDKEKGEVWFDIREGHHHHHH”, “soluble”; that for “GNSKKHNLILIGAPGSGKGTQCEFIKKEYGLAHLSTGDMLREAIKNGTKIGLEAKSIIESGNFVGDEIVLGLVKEKFDLGVCVNGFVLDGFPRTIPQAEGLAKILSEIGDSLTSVIYFEIDDSEIIERISGRCTHPASGRIYHVKYNPPKQPGIDDVTGEPLVWRDDDNAEAVKVRLDVFHKQTAPLVKFYEDLGILKRVNAKLPPKEVTEQIKKIL”, “soluble”.
The result for “MFPNSILGHPPFTPNHQQHNNFFTLSPTVYSHQQLIDAQFNFQNADLSRAVSLQQLTYGNVSPIQTSASPLFRGRKRLSDEKNLPLDGKRQRFHSPHQEPTVVNQIVPLSGERRYSMPPLFHTHYVPDIVRCVPPFREIAFLEPREITLPEAKDKLSQQILELFETCQQQISDLKKKELCRTQLQREIQLLFPQSRLFLVGSSLNGFGTRSSDGDLCLVVKEEPCFFQVNQKTEARHILTLVHKHFCTRLSGYIERPQLIRAKVPIVKFRDKVSCVEFDLNVNNIVGIRNTFLLRTYAYLENRVRPLVLVIKKWASHHQINDASRGTLSSYSLVLMVLHYLQTLPEPILPSLQKIYPESFSPAIQLHLVHQAPCNVPPYLSKNESNLGDLLLGFLKYYATEFDWNSQMISVREAKAIPRPDGIEWRNKYICVEEPFDGTNTARAVHEKQKFDMIKDQFLKSWHRLKNKRDLNSILPVRAA” reads “not soluble”; that for “MESELIFHEGGCHCGKIKWRVKAARSVIAWSCNCSDCSMRGNVHFIVPSSNFELLDDSKDFITTYTFGTHTAKHTFCKVCGITSFYIPRSNPDGVAVTVKCVKSGTLAHIEVKSYDGQNWEMSHKKTGIASFSKE”, “soluble”.
With “MRYITAGESHGPQLTTIIEGVPAGLPLVADDINEELARRQKGYGRGRRMQIETDQVQIVSGVRHGETLGSPIALVVENRDFAHWTKIMGAEPLTEQEEKEMKRKVTKPRPGHADLNGAIKYGHRDMRNVLERSSARETTVRVAAGAVAKKVLAELGITVAGHVIEIGGVEAKETTYRSIEELKSITEASPVRCLDEEAGNQMIKAIDDAKSNGDSIGGIVEVIVEGMPIGVGSYVHYDRKLDAKLAAAIMSINAFKGVEIGIGFEAAHRPGSEVHDEILWNEEHGYTRRTNNAGGLEGGMTTGMPIVVRGVMKPIPTLYKPLQSVDIDTKEPFTASIERSDSCAVPAASVVAEAVVAWELATALIEQFGLDRMDLIRENIEKHNEYARGF”, the “soluble on expression in E. coli” value is listed as “not soluble”.
The result for “MDVQIFPHRLLGADTTEKLLNRLEDISGVKRMVIHGQRLPPEDHPDRRIISVKGHEFELQVKTGRVLLEIEDEDTIADIKRVCEDLLPFGYDVTPGKYIRTQKTVTDEIKYGEDLDKVPEELIGLTDQNARLSERATIIKRKKEHLEHHHHHH” reads “soluble”; that for “MGSDKIHHHHHHMSWRYALKNYVTSPETVNDDTVTYFDDKVSIIRDSFPKSECHLLILPRTMQLSRSHPTKVIDAKFKNEFESYVNSAIDHIFRHFQEKFRIKKSDDDKDPCWDDILKDKNKFVRNFVQVGIHSVPSMANLHIHVISKDFHSVRLKNKKHYNSFNTGFFISWDDLPLNGKNLGTDKEIETTYLKEHDLLCCYCQRNFSNKFSLLKKHLELEFNSHFELK”, “not soluble”; that for “MGSDKIHHHHHHMSNAKRLLVSDMKMGVDISENELLRQSEGLLQRLLFDHTTQRNIFWATDDYTTLGDAYKYDAPITTDSITGEHDTVIQPRVLKSKEEQANRTKDKAEVFTPSWVCNAQNNLIDEAWFGRKDVFNIEQPETKTWIATTEPITFPEGKTWKDYVCSTRMEITCGEAPYLVSRYDTTTGEFIPIPQRIGMLDRKLRIISENTSSTGEWLKMAQKAYKNIYAYEWQGDNLLLAREALLITFIEYYEEKFGKRPLDKSIEYIAYIISWNVWQMDGLKGVVPNSCTHGVSVLPDDLFESMEELILCPGCQNESIKKHNGTYCLIRDWGCKDPKTGENNRKIRFVDLIKNNI”, “not soluble”.
Turning to “MGSDKIHHHHHHMKRSQINEIMAEAETFMRSFGFVLPPFAYWTPEEMRANASVAKAVIDGRLGWDITDYGEGKFDELGLFLFTLRNGRLSDLQAGGGMCYAEKLLISKQDQISPMHRHMLKAEDIINRGGATMAIELNGSAPDGSFDPDAGGVVMCDGIERRFSAGEVLLFAPGESVTLMPGDWHKFWGEGGDVLIGEVSTVNNDDTDNWFREPIGRFAAVDEDVAPTHLLVSDYGTWL”, the “soluble on expression in E. coli” value is on record as “not soluble”.
For “MGSDKIHHHHHHMSELTDLLLQGPRSAPELRQRLAISQATFSRLVAREDRVIRFGKARATRYALLRPYRGIERIPVWRVDDTGKAHKFADIRLCWPQGSCLVTGADGDEQWFDGLPWYLTDLRPQGFLGRAWGRKLAAQLNLTDDIRLWQEEDVLYALTVFNGEYTGGWLVGEGNYQRWITAQHPAEIPLDQKLTHYEQLASDALAGEIVGSSAGGEQPKFTYYAQTPSGNKHVLVKFTVPQQTAVSQRWGDLLIAESIAAQILRDGGIHAIESTVLVTSNRQVFLEAERFDCKGNDGRLPIVSLEAVQSEFISSPGSWPQAMRRLCEQQLVTHQSVAQTEVIWAFGRLIANSDMHAGNLSFYLSEPPFALTPVYDMLPMVYAPNSAGMLRDAAIEVKFDLNVSKSAWLTAIPLAQQFWQTVARDPRISEAFRHIAQEMPEKIRQIEEKVARMGG” the value was “not soluble”; for “MAATTKKPEIAAQHKPQTAAAAVASPATGAQPGHYVDPAVASAAGVNNVPAQHQAPGSPAQGYGAAADIGGLTTQPTAISAGTSSIYSTATHSGSAAAQGMAAAQGGSAQKIIPAVSSVYSAPIQPSQPQPVAAPVAVPVAAQVPPEQHSENRQPAAVPVPQPEQRAAAQPATNAGATVEGREGEGRSLTLAAFFAGAAKKRLPKMIESGTAGNTEVAALSGAADGSMGIALSGRSMMSEEFDDAHLDEEDDQPNGLMKLASLSGLTRVSPNGLFLQTDHVEVGCFKPELVRMIKDVERHYNSPAIVTSGYRPPKGIRQGSKHYTCDAADIQIKGVSKWELATYLRSLPDRGGVGTYCHTESVHMDTGEARDWNWRCRRTAARK”, “not soluble”.
For “MLFATSGSGSMLQSWNLKTSKRTGSFDAKSSINAVAISPDGNTLATGIRDNAIKLWNINDGKLIHTLTGHQGQVRTVAFSPDGTLLASGSSDGTVKLWNATTGKEINTFTAHKEQVWSVAFNPDGKTLASTGQDGSVKIWGVSPQLEHHHHHH” the value was “soluble”; for “MGSDKIHHHHHHMATYNYPEFGAGLWHFANYIDRYAVDGYGPALSTIDQINAAKEVGELSYVDLPYPFTPGVTLSEVKDALKDAGLKAIGITPEIYLQKWSRGAFTNPDPAARAAAFELMHESAGIVRELGANYVKVWPGQDGWDYPFQVSHKNLWKLAVDGMRDLAGANPDVKFAIEYKPREPRVKMTWDSAARTLLGIEDIGLDNVGVLLDFGHALYGGESPADSAQLIIDRGRLFGMDVNDNLRGWDDDLVVGTVHMTEIFEFFYVLKINNWQGVWQLDQFPFRENHVEAAQLSIRFLKHIYRALDKLDIPALQAAQEAQNPLQAQRIVQDALLSSITVSE”, “not soluble”; for “MKHWRPFRFPPLIDGAPLAPDAAAEVQASAADGFRQGMDAGYREGFDSGEAAGRDAGYQAGLEQGRAEGAAAARAETLAGLETLGAPLAAAIEQLNKLCRDYQAAQRDEVVDLVAKVARQVIRCELALKPVQILDLVEETLAALPQGAHSQGEVEVLLNPEECQRIRELAPERAAQWKLSADPSLAPGECRLRGAEFEADAGCQQRLERCVDSLREQLAAEEG”, “not soluble”.
